Data reported in US7052851B2, “Crystal structure of cysteine protease” (Novartis International AG, priority 1996, dated 2006).
The star is where a group is joined. CH2F = FC*

Molecular target: T1, recombinant human CPP32 (Homo sapiens, UniProt P42574)
T1 construct: β-CHAIN; 29; 175; CPP32 P17 SUBUNIT; α-CHAIN; 176; 277; CPP32 P12 SUBUNIT; made in house; host or cells: E. coli BL21 (DE3), pET21b
T1 sequence (P42574 29-175): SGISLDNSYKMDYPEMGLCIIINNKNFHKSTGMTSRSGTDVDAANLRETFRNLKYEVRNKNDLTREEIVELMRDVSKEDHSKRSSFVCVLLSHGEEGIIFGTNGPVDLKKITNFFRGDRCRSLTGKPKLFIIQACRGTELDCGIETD
T1 sequence (P42574 176-277): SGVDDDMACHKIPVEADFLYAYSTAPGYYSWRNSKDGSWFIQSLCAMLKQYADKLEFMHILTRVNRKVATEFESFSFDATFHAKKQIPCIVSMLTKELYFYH
Assay: CPP32 protease activity inhibition (enzyme treated with irreversible inhibitor before crystallization)
Format: biochemical
Conditions: slight excess (1.6×) of inhibitor added to purified recombinant human CPP32 (C-terminal 6His) in 50 mM DTT, 50 mM HEPES, pH 8.0, on ice
From the text: As defined herein, purified CPP32 is more than 95% homogeneous. Protein homogeneity is determinable according to analytical methods well-known in the art, e.g. sequence analysis, electrophoresis, spectroscopic or chromatographic techniques. The purified protein is enzymatically active. Appropriate assays for determining CPP32 protease activity towards a suitable substrate, e.g. a natural substrate, such as PARP, or a synthetic substrate which is cleavable by CPP32, is known in the art. Advantagously, a peptide, such as aminomethylcoumarin, is used as synthetic substrate. […]
Recombinant human CPP32 expressed in a soluble form in E. coli (E. coli BL21) is purified to homogeneity by Ni^2+ chromatography using an imidazole gradient (60 mM-1 M). […] The purified CPP32 protein is more than 95% homogeneous, as determined by SDS-PAGE (10–20% gradient gel), reverse phase high performance liquid chromatography (RP-HPLC), MALDI-TOF mass spectrometry, N-terminal sequence and amino acid analysis. […] The purified CPP32 protein which is a (p17p12)2 tetramer in solution, as analyzed by dynamic light scattering, compares to the published CPP32 amino acid sequence (Fernandes-Alnemri, T., Litwack, G. & Alnemri, E. S. (1994). J. Biol. Chem. 269, 30761–30764, FIG. 1, p.30762) as follows: […]

enzyme inhibited: 99.9%
Substance: Ac-Asp-Val-Ala-Asp-fluoromethylketone (Ac-DVAD-CH2F; SMILES CC(=O)N[C@@H](CC(=O)O)C(=O)N[C@H](C(=O)N[C@@H](C)C(=O)N[C@@H](CC(=O)O)C(=O)CF)C(C)C)
